Substitutions are numbered along the chain they refer to. Where two headings read alike, the source gives them in different places.
B1: SBT-002 (antibody, V domains shown)
VH: QVTLKESGPGILQPSQTLSLTCSFSGFSLSTSGMGVGWIRQPSGKGLEWLAHIWWDDDKFYNPSLKSQLTISKDTSRNQVFLKLTSVVTADTATYYCARLTGTRYFDYWGQGTTLTVSS
VL: DVQMTQSPSSLSASLGGKVTITCKASQDINKFIAWYQHKPGKGPRLLIHYTSTLQPGIPSKFSGSGSGRDYSFSISNLEPEDIATYYCLQYGNLWTFGGGTKLEIT
notes: Parental mouse antibody; also called mouse SBT-002
B2: SBT-004 (antibody, V domains shown)
VH: EVQLQQSGPEVGRPGSSVKISCKASGYTFTDYIMHWVKQSPGQGLEWIGWVDPEYGSTDYAEKFKKKATLTADTSSNTAYIQLSSLTSEDTATYFCARDDGSYSPFDYWGQGVMVTVSS
VL: DIQMTQSPPSLSASLGDKVTITCQASQNINKYIAWYQQKPGKAPRLLIRYTSTLESGTPSRFSGSGSGRDYSFSISNVESEDIASYYCLQYVNLLTFGAGTKLEIK
notes: Parental rat antibody; also called rat SBT-004

Columns and labels:
[1] = molecular target: T1, monomeric human TNFR2 extracellular domain (human, UniProt P20333 23-257); assay: BLI (Octet Red 96), Human TNFR2 Kd (1-1)
T1 construct: extracellular domain; Analyte in the Octet experiments; also called human TNFR2 ECD
T1 sequence (looked up): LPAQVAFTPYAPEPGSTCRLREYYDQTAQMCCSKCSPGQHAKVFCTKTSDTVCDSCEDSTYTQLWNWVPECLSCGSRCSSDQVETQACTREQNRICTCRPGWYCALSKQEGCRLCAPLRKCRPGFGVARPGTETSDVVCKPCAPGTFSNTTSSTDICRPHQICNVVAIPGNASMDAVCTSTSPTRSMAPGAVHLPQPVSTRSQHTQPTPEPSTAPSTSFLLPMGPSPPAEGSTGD

soluble human TNFR2 [2] = molecular target: T2, soluble human TNFR2 (human, UniProt P20333 23-257); assay: competition ELISA, plate-bound soluble human TNFR2, biotinylated TNFα as competitor
T2 construct: also called soluble TNFR2
T2 sequence (looked up): T1 sequence (looked up)
Method: (§1) Soluble human TNFR2 (Sino Biological, 10417-H08H) or cynomolgus TNFR2 (Sino Biological, 90102-C08H) was coated on Nunc-Immuno™ plates at 0.1 μg/ml, 0.5 ug/ml, 1 μg/ml, and 5 μg/ml. […] Plates were developed using TMB and stopped with 3 M HCl.
(§2) IC₅₀ values are reported in nM.

soluble cynomolgus TNFR2 [3] = molecular target: T3, soluble cynomolgus TNFR2 (cynomolgus, UniProt A0A2K5VET2 132-366); assay: competition ELISA, plate-bound soluble cynomolgus TNFR2, biotinylated TNFα as competitor
T3 sequence: T1 sequence (looked up) with S16G, S36P, P117Q, N164H, E210A, S216G, M223V
Method: as §1, §2

soluble human TNFR2 [4] = molecular target: T2, soluble human TNFR2; assay: competition ELISA (FIG. 1), plate-bound soluble human TNFR2, constant biotinylated TNFα as competitor
From the text: (§3) Soluble human TNFR2 was coated on Nunc-Immuno™ plates. […] IC₅₀ values are reported in nM.

soluble human TNFR2 [5] = molecular target: T2, soluble human TNFR2; assay: competition ELISA (FIG. 2), plate-bound soluble human TNFR2, constant biotinylated TNFα as competitor
From the text: as §3

[6] = molecular target: T1, monomeric human TNFR2 extracellular …; assay: BLI (Octet Red 96), antibody captured on Fc biosensor, monomeric TNFR2 ECD in solution, 1:1 model
Method: (§4) Analysis of binding to the human and cynomolgus TNFR2 ECD was performed using an Octet Red 96 Instrument™ (ForteBio). […] The experiments were performed using five steps: (1) baseline acquisition (60 s); (2) antibody loading on to anti-human or anti-mouse Fc biosensors (120 s); (3) second baseline acquisition (60 s); (4) association of interacting monomeric human or cynomolgus TNFR2 ECD protein for kₒₙ measurement (120 s); and (5) dissociation of interacting monomeric human or cynomolgus TNFR2 ECD for koff measurement (240-3600 s).
(§5) The interacting monomeric human or cynomolgus ECD was used at 5-6 concentrations of a 3-fold concentration series. The data were analyzed using Octet Data Analysis Software 9.0™ (ForteBio) and fit to the 1:1 binding model. The equilibrium dissociation constants (Kd) were calculated by the ratio of […].

[7] = molecular target: T4, monomeric cynomolgus TNFR2 extracellular domain (cynomolgus monkey, UniProt A0A2K5VET2 132-366); assay: as above
T4 construct: extracellular domain; Analyte in the Octet experiments; also called cynomolgus TNFR2 ECD; Cyno TNFR2
T4 sequence: T1 sequence (looked up) with S16G, S36P, P117Q, N164H, E210A, S216G, M223V
Method: as §4, §5

soluble human TNFR2 [8] = molecular target: T2, soluble human TNFR2; assay: competition ELISA: plate-bound soluble human TNFR2, competitor biotinylated TNFα, streptavidin-HRP, A450
Method: as §1

soluble human TNFR2 [9] = molecular target: T2, soluble human TNFR2; assay: as above; remark: listed apart in the source
Method: as §1

soluble cynomolgus TNFR2 [10] = molecular target: T3, soluble cynomolgus TNFR2; assay: competition ELISA: plate-bound soluble cynomolgus TNFR2, competitor biotinylated TNFα, streptavidin-HRP, A450
Method: as §1

soluble cynomolgus TNFR2 [11] = molecular target: T3, soluble cynomolgus TNFR2; assay: as above; remark: listed apart in the source
Method: as §1

soluble human TNFR2 [12] = molecular target: T2, soluble human TNFR2; assay: competition ELISA: plate-bound soluble human TNFR2, competitor biotinylated TNFα; IC50 relative to unlabelled TNFα = 1.00
Method: as §1

soluble human TNFR2 [13] = molecular target: T2, soluble human TNFR2; assay: as above; remark: listed apart in the source
Method: as §1, §2

soluble cynomolgus TNFR2 [14] = molecular target: T3, soluble cynomolgus TNFR2; assay: competition ELISA: plate-bound soluble cynomolgus TNFR2, competitor biotinylated TNFα; IC50 relative to unlabelled TNFα = 1.00
Method: as §1

soluble cynomolgus TNFR2 [15] = molecular target: T3, soluble cynomolgus TNFR2; assay: as above; remark: listed apart in the source
Method: as §1, §2

soluble human TNFR2 [16] = molecular target: T2, soluble human TNFR2; assay: competition ELISA (FIG. 2), plate-bound soluble human TNFR2, constant biotinylated TNFα as competitor; unit from paragraph 202 (IC50 values are reported in nM)
From the text: as §3

Row | Binder | Kd [1] [nM] | Average Relative IC50 (soluble human TNFR2 [2]) [nM] | Average Relative IC50 (soluble cynomolgus TNFR2 [3]) | IC50 (soluble human TNFR2 [4]) [nM] | IC50 (soluble human TNFR2 [5]) [nM] | Kd [6] [nM] | Kd [7] [nM] | IC50 (soluble human TNFR2 [8]) [nM] | IC50 (soluble human TNFR2 [9]) [nM] | IC50 (soluble cynomolgus TNFR2 [10]) [nM] | IC50 (soluble cynomolgus TNFR2 [11]) [nM] | Relative IC50 (soluble human TNFR2 [12]) [nM] | Relative IC50 (soluble human TNFR2 [13]) [nM] | Relative IC50 (soluble cynomolgus TNFR2 [14]) [nM] | Relative IC50 (soluble cynomolgus TNFR2 [15]) [nM] | IC50 (soluble human TNFR2 [16]) [nM]
1 | B1 | 1.3 | 2.19 | 1.98 | 5.12 | 5.08 | 1.3 | 0.44 | 5.77 | 12.1 | 8 | 19.6 | 2.33 | 2.17 | 2.13 | 2.04 | –
2 | B2 | 1.1 | – | – | 7.88 | – | 1.8 | – | – | – | – | – | – | – | – | – | 6.59

— patent US20190202925A1 (OPI VI IP HOLDCO, published 2019)
